The values below come from patent US20190015483A1 (CSL BEHRING RECOMBINANT FACILITY, published 2019).

Residue numbers refer to the chain shown, from its start. In names and notes the source's numbering stands.

The target in this assay is T1, recombinant Factor VIII (CSL627, rVIII-SingleChain) (Homo sapiens (Human), UniProt P00451 20-2351).
T1 construct: also called FVIII
T1 sequence: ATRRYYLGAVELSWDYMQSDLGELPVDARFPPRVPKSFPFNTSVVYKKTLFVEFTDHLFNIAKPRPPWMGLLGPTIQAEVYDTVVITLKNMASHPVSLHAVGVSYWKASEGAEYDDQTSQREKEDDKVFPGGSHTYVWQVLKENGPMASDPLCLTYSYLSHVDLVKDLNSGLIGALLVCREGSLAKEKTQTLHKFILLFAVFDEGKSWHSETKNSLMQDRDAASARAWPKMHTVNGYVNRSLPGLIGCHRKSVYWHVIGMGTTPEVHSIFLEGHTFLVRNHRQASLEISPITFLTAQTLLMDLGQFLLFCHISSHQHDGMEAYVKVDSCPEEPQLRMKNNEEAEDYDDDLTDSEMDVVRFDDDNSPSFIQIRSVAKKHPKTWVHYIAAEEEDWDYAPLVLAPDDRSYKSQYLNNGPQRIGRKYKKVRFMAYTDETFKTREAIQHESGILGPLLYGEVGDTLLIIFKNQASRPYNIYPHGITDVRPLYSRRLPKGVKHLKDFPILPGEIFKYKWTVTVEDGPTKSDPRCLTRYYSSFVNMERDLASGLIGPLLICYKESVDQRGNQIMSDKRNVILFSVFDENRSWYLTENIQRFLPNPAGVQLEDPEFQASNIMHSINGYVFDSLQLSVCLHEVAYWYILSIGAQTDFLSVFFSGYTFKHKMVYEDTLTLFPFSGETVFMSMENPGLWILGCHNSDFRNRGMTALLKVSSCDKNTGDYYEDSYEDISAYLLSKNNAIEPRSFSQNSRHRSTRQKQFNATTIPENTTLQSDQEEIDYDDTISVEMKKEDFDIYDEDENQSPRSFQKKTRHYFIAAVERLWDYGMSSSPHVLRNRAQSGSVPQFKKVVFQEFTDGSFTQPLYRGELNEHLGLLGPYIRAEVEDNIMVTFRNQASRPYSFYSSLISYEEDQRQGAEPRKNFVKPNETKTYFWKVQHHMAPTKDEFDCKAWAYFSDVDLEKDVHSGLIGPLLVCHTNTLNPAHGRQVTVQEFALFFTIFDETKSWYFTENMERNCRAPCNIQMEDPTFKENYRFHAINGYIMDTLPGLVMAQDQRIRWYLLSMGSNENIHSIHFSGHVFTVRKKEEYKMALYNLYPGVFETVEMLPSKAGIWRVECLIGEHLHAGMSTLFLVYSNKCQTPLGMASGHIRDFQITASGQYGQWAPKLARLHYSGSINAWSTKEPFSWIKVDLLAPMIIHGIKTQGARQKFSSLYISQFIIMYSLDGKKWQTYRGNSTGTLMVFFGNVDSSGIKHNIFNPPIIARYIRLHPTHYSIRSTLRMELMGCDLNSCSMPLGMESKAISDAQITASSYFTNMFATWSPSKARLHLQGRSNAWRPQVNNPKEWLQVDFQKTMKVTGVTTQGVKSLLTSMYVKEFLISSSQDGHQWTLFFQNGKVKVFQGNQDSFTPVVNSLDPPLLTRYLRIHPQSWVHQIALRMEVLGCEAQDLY
Put plainly: SPR, anti-His capture, FVIII injected, 37 C. As for the experimental part:
Binding kinetics were investigated by surface plasmon resonance using a Biacore 4000 biosensor at 37° C. Each mutant was captured from cell culture medium to a density of 40-150 RU on a CM-5 sensor chip pre-immobilised with anti-His antibody (14,000 RU). In an initial screening study, FVIII was injected over the captured mutants for 5 minutes at 1 nM and dissociation monitored for 5 minutes.
All sensorgrams were double referenced by subtraction of signals from a reference spot (containing only immobilised anti His antibody) and from a blank injection. Binding kinetics were determined by fitting the double referenced sensorgrams to a 1:1 kinetic model.

B1: Hu-vWF[764-1270]-8His S766W-S806G (other)
chain: SLWCRPPMVKLVCPADNLRAEGLECTKTCQNYDLECMSMGCVGGCLCPPGMVRHENRCVALERCPCFHQGKEYAPGETVKIGCNTCVCRDRKWNCTDHVCDATCSTIGMAHYLTFDGLKYLFPGECQYVLVQDYCGSNPGTFRILVGNKGCSHPSVKCKKRVTILVEGGEIELFDGEVNVKRPMKDETHFEVVESGRYIILLLGKALSVVWDRHLSISVVLKQTYQEKVCGLCGNFDGIQNNDLTSSNLQVEEDPVDFGNSWKVSSQCADTRKVPLDSSPATCHNNIMKQTMVDSSCRILTSDVFQDCNKLVDPEPYLDVCIYDTCSCESIGDCACFCDTIAAYAHVCAQHGKVVTWRTATLCPQSCEERNLRENGYECEWRYNSCAPACQVTCQHPEPLACPVQCVEGCHAHCPPGKILDELLQTCVDPEDCPVCEVAGRRFASGKKVTLNPSDPEHCQICHCDVVNLTCEACQEPGGLVVPPTDAPVSPTTLYVEDISEPPLHDFHHHHHHHH
On to B1, for which the dissociation constant Kd – broadly, the equilibrium constant for the complex coming apart – was found to be 0.245 nM; the koff – broadly, the first-order rate constant of dissociation – worked out at 0.00134 s⁻¹; the on-rate (kon) – broadly, a measure of how fast the partners come together – turned out to be 5.46e+06 M⁻¹ s⁻¹.

B2: Hu-vWF[764-1270]-8His S766Y-P769G (other)
chain: B1 chain with W3Y, P6G, G43S
With B2, the dissociation constant Kd worked out at 0.212 nM, the koff was 0.000783 s⁻¹ and the on-rate constant (kon) stood at 3.7e+06 M⁻¹ s⁻¹.

B3: Hu-vWF[764-1270]-8His S766Y-P769A (other)
chain: B1 chain with W3Y, P6A, G43S
B3: the dissociation constant Kd was determined as 0.106 nM, the off-rate constant (koff) stood at 0.000519 s⁻¹ and the association rate constant (kon) turned out to be 4.9e+06 M⁻¹ s⁻¹.

B4: Hu-vWF[764-1270]-8His S766Y-P769E (other)
chain: B1 chain with W3Y, P6E, G43S
B4: the Kd came out at 0.0936 nM, the koff amounted to 0.000414 s⁻¹ and the on-rate constant (kon) was 4.42e+06 M⁻¹ s⁻¹.

B5: Hu-vWF[764-1270]-8His S766Y-P769R (other)
chain: B1 chain with W3Y, P6R, G43S
B5: the Kd was determined as 0.045 nM, the off-rate (koff) was determined as 0.000295 s⁻¹ and the on-rate constant (kon) stood at 6.55e+06 M⁻¹ s⁻¹.

B6: Hu-vWF[764-1270]-8His S766Y-P769H (other)
chain: B1 chain with W3Y, P6H, G43S
For B6, the equilibrium dissociation constant (Kd) turned out to be 0.0809 nM, the koff stood at 0.000417 s⁻¹ and the kon is 5.16e+06 M⁻¹ s⁻¹.

B7: Hu-vWF[764-1270]-8His S766W-S806N (other)
chain: B1 chain with G43N
As for B7, the equilibrium dissociation constant (Kd) was 0.152 nM, the off-rate constant (koff) worked out at 0.000585 s⁻¹ and the kon is 3.84e+06 M⁻¹ s⁻¹.

B8: Hu-vWF[764-1270]-8His S766Y-P769I (other)
chain: B1 chain with W3Y, P6I, G43S
Turning to B8, the binding result was “no binding”.

B9: Hu-vWF[764-1270]-8His S766Y-P769V (other)
chain: B1 chain with W3Y, P6V, G43S
B9: the dissociation constant (Kd) was 0.0849 nM, the off-rate constant (koff) is 0.000565 s⁻¹ and the association rate constant (kon) was determined as 6.65e+06 M⁻¹ s⁻¹.

B10: Hu-vWF[764-1270]-8His S766W-S806Y (other)
chain: B1 chain with G43Y
In the case of B10, the binding result is “no binding”.

B11: Hu-vWF[764-1270]-8His S766W-S806P (other)
chain: B1 chain with G43P
In the case of B11, the Kd worked out at 0.133 nM, the koff was 0.000566 s⁻¹ and the kon turned out to be 4.26e+06 M⁻¹ s⁻¹.

B12: Hu-vWF[764-1270]-8His S766Y-P769F (other)
chain: B1 chain with W3Y, P6F, G43S
In the case of B12, the Kd is 0.0772 nM, the dissociation rate constant (koff) was 0.000427 s⁻¹ and the on-rate (kon) was determined as 5.54e+06 M⁻¹ s⁻¹.

B13: Hu-vWF[764-1270]-8His S766Y-P769S (other)
chain: B1 chain with W3Y, P6S, G43S
As for B13, the Kd amounted to 0.113 nM, the koff stood at 0.000511 s⁻¹ and the kon came out at 4.51e+06 M⁻¹ s⁻¹.

B14: Hu-vWF[764-1270]-8His S766W-S806V (other)
chain: B1 chain with G43V
B14: the Kd is 0.149 nM, the koff worked out at 0.000619 s⁻¹ and the kon was determined as 4.17e+06 M⁻¹ s⁻¹.

B15: Hu-vWF[764-1270]-8His S766Y-P769M (other)
chain: B1 chain with W3Y, P6M, G43S
For B15, the Kd worked out at 0.108 nM, the koff is 0.000511 s⁻¹ and the kon was 4.75e+06 M⁻¹ s⁻¹.

B16: Hu-vWF[764-1270]-8His S766W-S806Q (other)
chain: B1 chain with G43Q
B16: the Kd came to 0.407 nM, the koff came to 0.00176 s⁻¹ and the kon stood at 4.33e+06 M⁻¹ s⁻¹.

B17: Hu-vWF[764-1270]-8His S766Y-P769L (other)
chain: B1 chain with W3Y, P6L, G43S
In the case of B17, the Kd is 0.0917 nM, the dissociation rate constant (koff) worked out at 0.00059 s⁻¹ and the kon turned out to be 6.44e+06 M⁻¹ s⁻¹.

B18: Hu-vWF[764-1270]-8His S766W-S806M (other)
chain: B1 chain with G43M
Take B18: the Kd turned out to be 0.425 nM, the off-rate (koff) is 0.000872 s⁻¹ and the kon is 2.05e+06 M⁻¹ s⁻¹.

B19: Hu-vWF[764-1270]-8His S766W-S806I (other)
chain: B1 chain with G43I
For B19, the Kd came out at 0.283 nM, the dissociation rate constant (koff) came to 0.000447 s⁻¹ and the kon stood at 1.58e+06 M⁻¹ s⁻¹.

B20: Hu-vWF[764-1270]-8His S766W-S806R (other)
chain: B1 chain with G43R
Regarding B20, the Kd is 1.29 nM, the koff came out at 0.0107 s⁻¹ and the kon amounted to 8.28e+06 M⁻¹ s⁻¹.

B21: Hu-vWF[764-1270]-8His S766Y-P769D (other)
chain: B1 chain with W3Y, P6D, G43S
As to B21, the Kd turned out to be 0.165 nM, the koff turned out to be 0.000763 s⁻¹ and the kon was 4.63e+06 M⁻¹ s⁻¹.

B22: Hu-vWF[764-1270]-8His S766W-S806T (other)
chain: B1 chain with G43T
B22: the Kd was 0.125 nM, the koff amounted to 0.000654 s⁻¹ and the association rate constant (kon) stood at 5.25e+06 M⁻¹ s⁻¹.

B23: Hu-vWF[764-1270]-8His S766W-S806L (other)
chain: B1 chain with G43L
For the molecule B23, the binding result is reported as “no binding”.

B24: Hu-vWF[764-1270]-8His S766W-S806H (other)
chain: B1 chain with G43H
Turning to B24, the equilibrium dissociation constant (Kd) amounted to 0.093 nM, the koff was 0.000828 s⁻¹ and the association rate constant (kon) was found to be 8.9e+06 M⁻¹ s⁻¹.

B25: Hu-vWF[764-1270]-8His S766Y-P769K (other)
chain: B1 chain with W3Y, P6K, G43S
Regarding B25, the Kd came out at 0.0607 nM, the off-rate (koff) came out at 0.000383 s⁻¹ and the kon is 6.31e+06 M⁻¹ s⁻¹.

B26: Hu-vWF[764-1270]-8His S766Y-P769N (other)
chain: B1 chain with W3Y, P6N, G43S
Take B26: the dissociation constant (Kd) stood at 0.0325 nM, the off-rate (koff) was 0.00052 s⁻¹ and the association rate constant (kon) was 1.6e+07 M⁻¹ s⁻¹.

B27: Hu-vWF[764-1270]-8His S766Y-P769T (other)
chain: B1 chain with W3Y, P6T, G43S
As for B27, the equilibrium dissociation constant (Kd) turned out to be 0.0979 nM, the dissociation rate constant (koff) was 0.0005 s⁻¹ and the association rate constant (kon) amounted to 5.11e+06 M⁻¹ s⁻¹.

B28: Hu-vWF[764-1270]-8His S766W-S806W (other)
chain: B1 chain with G43W
B28: the binding result is on record as “no binding”.

B29: Hu-vWF[764-1270]-8His S766Y-P769Q (other)
chain: B1 chain with W3Y, P6Q, G43S
Consider B29, for which the binding result was “no binding”.
